Data on 2 molecules can be found in patent publication US20190284268A1 (ABCENTRA, published 2019).

Assay [1] deals with Fas (human) (UniProt P25445). The assay is described as follows: cell-based or functional assay.
Assay [2] deals with oxidized LDL (oxLDL) (UniProt P04114 28-4563, oxidized LDL particle; kind of oxidation not stated for this assay). Put plainly: cell-based or functional assay.
oxidized LDL (oxLDL), sequence (P04114 28-4563 limits assumed): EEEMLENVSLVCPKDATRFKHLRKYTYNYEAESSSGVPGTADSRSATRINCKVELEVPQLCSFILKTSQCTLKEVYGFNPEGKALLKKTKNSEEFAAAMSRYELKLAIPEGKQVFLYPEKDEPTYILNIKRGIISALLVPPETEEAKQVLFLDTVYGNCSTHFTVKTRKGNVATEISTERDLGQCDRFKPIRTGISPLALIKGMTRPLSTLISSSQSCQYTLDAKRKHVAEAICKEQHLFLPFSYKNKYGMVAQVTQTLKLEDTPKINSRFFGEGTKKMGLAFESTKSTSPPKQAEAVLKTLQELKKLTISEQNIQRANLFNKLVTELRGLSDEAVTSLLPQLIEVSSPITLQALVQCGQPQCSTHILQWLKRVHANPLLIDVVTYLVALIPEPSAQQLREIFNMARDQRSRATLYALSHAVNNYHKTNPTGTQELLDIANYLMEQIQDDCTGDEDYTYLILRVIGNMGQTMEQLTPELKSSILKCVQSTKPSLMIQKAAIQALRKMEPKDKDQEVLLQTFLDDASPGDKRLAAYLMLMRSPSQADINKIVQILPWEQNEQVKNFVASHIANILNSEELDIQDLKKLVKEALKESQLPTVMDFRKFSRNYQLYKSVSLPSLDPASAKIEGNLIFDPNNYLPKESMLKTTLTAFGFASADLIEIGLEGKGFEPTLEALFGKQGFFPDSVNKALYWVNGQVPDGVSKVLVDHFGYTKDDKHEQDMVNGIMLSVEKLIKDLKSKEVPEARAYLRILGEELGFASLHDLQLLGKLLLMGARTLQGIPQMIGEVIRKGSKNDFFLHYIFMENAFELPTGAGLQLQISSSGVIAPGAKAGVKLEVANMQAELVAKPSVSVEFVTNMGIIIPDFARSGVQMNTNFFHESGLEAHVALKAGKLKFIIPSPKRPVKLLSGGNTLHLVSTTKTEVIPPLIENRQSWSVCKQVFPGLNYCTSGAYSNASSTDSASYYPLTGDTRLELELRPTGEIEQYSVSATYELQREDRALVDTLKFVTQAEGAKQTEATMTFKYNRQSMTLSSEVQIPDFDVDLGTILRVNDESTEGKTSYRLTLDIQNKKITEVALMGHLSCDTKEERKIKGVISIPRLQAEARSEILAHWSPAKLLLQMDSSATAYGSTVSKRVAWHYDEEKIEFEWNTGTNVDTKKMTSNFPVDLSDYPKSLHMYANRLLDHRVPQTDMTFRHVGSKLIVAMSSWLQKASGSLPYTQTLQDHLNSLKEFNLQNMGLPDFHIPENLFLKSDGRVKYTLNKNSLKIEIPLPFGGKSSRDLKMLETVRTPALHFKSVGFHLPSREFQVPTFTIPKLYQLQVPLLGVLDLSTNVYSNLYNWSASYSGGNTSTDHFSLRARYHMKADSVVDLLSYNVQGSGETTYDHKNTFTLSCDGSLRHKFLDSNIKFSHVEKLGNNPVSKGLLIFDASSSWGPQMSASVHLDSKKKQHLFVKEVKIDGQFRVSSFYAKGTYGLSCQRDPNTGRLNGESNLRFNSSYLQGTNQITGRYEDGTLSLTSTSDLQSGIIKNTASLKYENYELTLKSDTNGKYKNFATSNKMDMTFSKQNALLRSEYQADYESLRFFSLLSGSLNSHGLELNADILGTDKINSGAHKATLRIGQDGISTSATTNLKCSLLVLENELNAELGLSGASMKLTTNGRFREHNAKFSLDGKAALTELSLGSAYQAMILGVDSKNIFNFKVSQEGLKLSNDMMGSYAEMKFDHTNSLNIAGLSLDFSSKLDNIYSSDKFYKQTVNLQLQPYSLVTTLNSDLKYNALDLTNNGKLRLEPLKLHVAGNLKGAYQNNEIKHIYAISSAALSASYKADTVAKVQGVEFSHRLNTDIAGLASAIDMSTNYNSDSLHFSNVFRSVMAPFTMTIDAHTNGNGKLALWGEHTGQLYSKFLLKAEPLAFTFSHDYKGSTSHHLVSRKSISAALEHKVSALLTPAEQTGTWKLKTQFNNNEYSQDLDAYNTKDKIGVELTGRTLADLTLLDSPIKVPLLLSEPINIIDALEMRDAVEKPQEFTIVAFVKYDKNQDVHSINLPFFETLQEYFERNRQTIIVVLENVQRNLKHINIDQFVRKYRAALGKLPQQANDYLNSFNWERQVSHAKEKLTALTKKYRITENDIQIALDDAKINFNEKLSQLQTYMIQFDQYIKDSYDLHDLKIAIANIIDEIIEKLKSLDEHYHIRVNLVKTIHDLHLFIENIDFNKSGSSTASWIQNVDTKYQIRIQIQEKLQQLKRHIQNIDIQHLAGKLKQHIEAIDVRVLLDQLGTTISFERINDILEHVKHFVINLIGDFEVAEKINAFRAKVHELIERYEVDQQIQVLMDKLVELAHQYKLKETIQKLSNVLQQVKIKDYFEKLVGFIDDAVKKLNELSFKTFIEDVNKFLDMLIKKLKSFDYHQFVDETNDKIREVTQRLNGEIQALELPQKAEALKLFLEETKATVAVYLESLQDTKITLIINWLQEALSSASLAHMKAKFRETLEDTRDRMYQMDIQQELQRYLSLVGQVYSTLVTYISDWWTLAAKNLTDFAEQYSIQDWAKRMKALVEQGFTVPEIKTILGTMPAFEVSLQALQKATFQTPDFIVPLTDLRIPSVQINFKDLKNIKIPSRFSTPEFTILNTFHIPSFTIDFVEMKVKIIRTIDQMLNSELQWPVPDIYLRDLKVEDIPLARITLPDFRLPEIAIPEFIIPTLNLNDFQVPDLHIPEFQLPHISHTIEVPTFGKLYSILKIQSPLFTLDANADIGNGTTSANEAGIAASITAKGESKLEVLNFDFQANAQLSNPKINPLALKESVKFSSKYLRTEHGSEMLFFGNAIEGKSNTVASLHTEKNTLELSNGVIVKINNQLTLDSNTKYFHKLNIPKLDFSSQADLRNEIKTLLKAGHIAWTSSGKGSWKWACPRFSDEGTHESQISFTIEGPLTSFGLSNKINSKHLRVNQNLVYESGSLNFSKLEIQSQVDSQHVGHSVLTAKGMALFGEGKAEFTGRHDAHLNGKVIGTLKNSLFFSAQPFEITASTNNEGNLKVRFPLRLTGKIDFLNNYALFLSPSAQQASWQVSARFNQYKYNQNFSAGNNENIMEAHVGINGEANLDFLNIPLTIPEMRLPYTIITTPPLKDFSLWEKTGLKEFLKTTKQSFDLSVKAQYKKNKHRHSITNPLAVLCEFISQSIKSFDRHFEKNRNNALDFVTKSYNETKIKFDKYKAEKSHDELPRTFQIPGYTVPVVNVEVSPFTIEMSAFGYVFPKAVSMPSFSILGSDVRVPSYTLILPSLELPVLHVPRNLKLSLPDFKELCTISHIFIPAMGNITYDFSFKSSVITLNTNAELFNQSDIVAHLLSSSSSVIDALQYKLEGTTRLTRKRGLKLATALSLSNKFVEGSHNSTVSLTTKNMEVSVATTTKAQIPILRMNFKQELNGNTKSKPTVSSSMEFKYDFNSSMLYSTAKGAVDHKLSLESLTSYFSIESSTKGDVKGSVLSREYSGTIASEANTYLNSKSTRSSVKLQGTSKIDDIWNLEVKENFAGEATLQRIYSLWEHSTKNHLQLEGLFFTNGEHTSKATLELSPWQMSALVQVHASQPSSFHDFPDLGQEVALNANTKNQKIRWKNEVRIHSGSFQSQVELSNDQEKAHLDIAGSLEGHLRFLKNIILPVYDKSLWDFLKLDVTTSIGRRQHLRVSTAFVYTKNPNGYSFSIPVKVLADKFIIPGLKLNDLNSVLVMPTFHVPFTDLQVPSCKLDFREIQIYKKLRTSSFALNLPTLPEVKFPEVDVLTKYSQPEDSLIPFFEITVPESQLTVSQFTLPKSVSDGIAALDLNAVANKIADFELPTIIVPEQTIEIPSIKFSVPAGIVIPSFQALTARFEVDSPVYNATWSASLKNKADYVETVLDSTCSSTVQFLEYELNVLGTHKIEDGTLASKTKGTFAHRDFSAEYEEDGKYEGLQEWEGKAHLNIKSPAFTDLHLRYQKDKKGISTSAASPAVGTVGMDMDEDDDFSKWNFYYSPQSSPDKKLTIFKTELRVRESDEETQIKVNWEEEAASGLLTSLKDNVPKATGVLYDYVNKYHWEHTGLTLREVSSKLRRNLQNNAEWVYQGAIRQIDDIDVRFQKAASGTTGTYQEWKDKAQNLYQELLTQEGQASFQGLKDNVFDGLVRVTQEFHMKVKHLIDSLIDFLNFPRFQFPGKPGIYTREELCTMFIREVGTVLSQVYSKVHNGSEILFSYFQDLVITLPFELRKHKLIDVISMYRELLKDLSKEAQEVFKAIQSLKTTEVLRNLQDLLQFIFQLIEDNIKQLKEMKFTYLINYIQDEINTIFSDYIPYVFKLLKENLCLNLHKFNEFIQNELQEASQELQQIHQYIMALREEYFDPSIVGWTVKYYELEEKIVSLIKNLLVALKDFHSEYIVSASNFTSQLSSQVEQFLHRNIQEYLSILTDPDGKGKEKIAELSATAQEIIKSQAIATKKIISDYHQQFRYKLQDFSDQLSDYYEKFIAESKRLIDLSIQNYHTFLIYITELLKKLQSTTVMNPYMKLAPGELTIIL

Fas (human), sequence (P25445 26-335): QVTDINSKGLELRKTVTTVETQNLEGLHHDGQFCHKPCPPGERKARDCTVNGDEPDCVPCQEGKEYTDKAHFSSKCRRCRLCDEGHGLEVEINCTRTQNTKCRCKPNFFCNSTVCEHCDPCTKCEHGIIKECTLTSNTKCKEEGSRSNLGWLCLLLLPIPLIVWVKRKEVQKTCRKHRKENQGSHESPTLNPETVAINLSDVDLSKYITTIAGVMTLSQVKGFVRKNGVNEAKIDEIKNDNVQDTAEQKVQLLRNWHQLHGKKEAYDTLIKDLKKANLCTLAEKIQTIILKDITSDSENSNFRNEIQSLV

“soluble Fas ligand (from UniProt P48023 134-281)”: the release of FAS from PBMCs of SLE patients in assay [1] worked out at 73%.

B1: orticumab (antibody, human IgG1, lambda, V domains shown)
VH: EVQLLESGGGLVQPGGSLRLSCAASGFTFSNAWMSWVRQAPGKGLEWVSSISVGGHRTYYADSVKGRSTISRDNSKNTLYLQMNSLRAEDTAVYYCARIRVGPSGGAFDYWGQGTLVTVSS
VL: QSVLTQPPSASGTPGQRVTISCSGSNTNIGKNYVSWYQQLPGTAPKLLIYANSNRPSGVPDRFSGSKSGTSASLAISGLRSEDEADYYCASWDASLNGWVFGGGTKLTVLG
Take B1: in assay [2], the “IC50 for MCP-1 inhibition” value is approximately 0.01 µM.
